Substitutions are numbered along the chain they refer to. Names may count otherwise.
T1: bovine pancreatic trypsin (Bos taurus, UniProt P00760)
T1 construct: purchased Worthington (Worthington Biochemical Corp.)
T1 sequence (P00760 24-246): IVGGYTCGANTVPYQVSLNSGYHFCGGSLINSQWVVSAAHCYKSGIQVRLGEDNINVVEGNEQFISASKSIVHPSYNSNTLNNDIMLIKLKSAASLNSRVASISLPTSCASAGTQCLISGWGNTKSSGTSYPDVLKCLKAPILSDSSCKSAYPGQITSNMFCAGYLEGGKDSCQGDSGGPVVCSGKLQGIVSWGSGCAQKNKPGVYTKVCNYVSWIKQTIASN

B1: BBIt-AV-A13I-M27R-L29P-A40K-F50T-V52A: modified variant BBPI, SEQ ID NO:619 (protein)
chain: DPDDESSKPCCDQCICTKSNPPQCRCSDRRPNSCHSACKSCKCYNLYGWTCTCADITDFCYEPCKPSE
modifications: synthetic BBPI variant
B2: BBIt-AV-A13I-L29P-A40K-F50K-V52A: modified variant BBPI, SEQ ID NO:624 (protein)
chain: B1 chain with R29M, T52K
modifications: synthetic BBPI variant
B3: BBIt-AV-A13L-L29P-A40K-F50T-V52A: modified variant BBPI, SEQ ID NO:615 (protein)
chain: B1 chain with I15L, R29M
modifications: synthetic BBPI variant
B4: BBIt-AV-A13I-L29K-A40K-F50T-V52A: modified variant BBPI, SEQ ID NO:620 (protein)
chain: B1 chain with R29M, P31K
modifications: synthetic BBPI variant
B5: BBIt-AV-A13I-S25R-L29P-S31A-A40K-F50T-V52A: modified variant BBPI, SEQ ID NO:617 (protein)
chain: B1 chain with S27R, R29M, S33A
modifications: synthetic BBPI variant
B6: BBIt-AV-A13I-S25R-L29P-S31R-A40K-F50T-V52A: modified variant BBPI, SEQ ID NO:618 (protein)
chain: B1 chain with S27R, R29M, S33R
modifications: synthetic BBPI variant
B7: BBIt-AV-S5P-A13I-L29P-A40K-F50T-V52A: modified variant BBPI, SEQ ID NO:613 (protein)
chain: B1 chain with S7P, R29M
modifications: synthetic BBPI variant
B8: BBIt-AV-Q11G-A13I-L29P-A40K-F50T-V52A: modified variant BBPI, SEQ ID NO:614 (protein)
chain: B1 chain with Q13G, R29M
modifications: synthetic BBPI variant
B9: BBIt-AV-S4V-A13I-L29P-A40K-F50T-V52A: modified variant BBPI, SEQ ID NO:612 (protein)
chain: B1 chain with S6V, R29M
modifications: synthetic BBPI variant
B10: BBIt-AV-A13I-S25R-L29P-A40K-F50T-V52A: modified variant BBPI, SEQ ID NO:616 (protein)
chain: B1 chain with S27R, R29M
modifications: synthetic BBPI variant
B11: BBIt-AV-A13I-L29P-A40K-F50T-V52T: modified variant BBPI, SEQ ID NO:625 (protein)
chain: B1 chain with R29M, A54T
modifications: synthetic BBPI variant
B12: BBIt-AV-A13I-L29P-S31R-A40K-F50T-V52A: modified variant BBPI, SEQ ID NO:622 (protein)
chain: B1 chain with R29M, S33R
modifications: synthetic BBPI variant
B13: BBIt-AV-A13I-L29P-S31A-A40K-F50T-V52A: modified variant BBPI, SEQ ID NO:621 (protein)
chain: B1 chain with R29M, S33A
modifications: synthetic BBPI variant
B14: BBIt-AV-4D13 insert -A13I-L29P-A40K-F50T-V52A: modified variant BBPI, SEQ ID NO:413 (protein)
chain: DPDDEPSKPCCDPDPDDESSKPCCDQCICTKSNPPQCRCSDMRPNSCHSACKSCKCYNLYGWTCTCADITDFCYEPCKPSE
modifications: synthetic BBPI sequence
B15: BBIdb-AV: BBdb with CK37281 replacing the second protease inhibitory loop, SEQ ID NO:452 (protein)
chain: DPSESSKPCCDQCACTKSIPPQCRCTDVRLNSCHSACSSCACYNLYGWTCVCVDMKDFCYEPCK
modifications: synthetic BBdb-AV sequence
B16: BBIsb3-AV: BBsb3 with CK37281 replacing the second protease inhibitory loop, SEQ ID NO:453 (protein)
chain: DPDDEYSKPCCDLCMCTRSMPPQCSCEDIRLNSCHSDCKSCACYNLYGWTCRCLDTNDFCYKPCKSRDD
modifications: synthetic BBsb3-AV sequence
B17: BBItc-AV: BBtc with CK37281 replacing the second protease inhibitory loop, SEQ ID NO:454 (protein)
chain: DPSSKWEACCDRCACTKSIPPQCHCADIRLNSCHSACESCACYNLYGWTCRCFDITDFCYKPCSG
modifications: synthetic BBtc-AV sequence
B18: 4D13BBIt-AV: BBIt-AV with 13 amino acid 4D13 insert (SEQ ID NO:389) at the N-terminus, SEQ ID NO:390 (protein)
chain: DDEPSKPCCDPDPDDESSKPCCDQCACTKSNPPQCRCSDMRLNSCHSACKSCACYNLYGWTCFCVDITDFCYEPCKPSE
modifications: synthetic BBI sequence

Molecular target: T1, bovine pancreatic trypsin
Assay: Shake flask screen: trypsin inhibition after growth, 2-mercaptoethanol activation and acid/heat treatment
Type: biochemical
Conditions: not given
Experimental: To increase expression, the gene copy of the selected clones was amplified by sequentially streaking colonies on Luria agar plates with 25 μg/ml chloramphenicol until the growth rate was similar to growth on Luria agar plates without chloramphenicol. Cultures of the selected variants and controls were grown in 3 ml Luria broth with 25 μg/ml chloramphenicol in 15 ml tubes for ˜10 h. These cultures (30 μl) were then used to inoculate 30 ml of MBD medium in 250 ml baffled shake flasks and grown at 37° C. and 225 rpm for ˜60 h.
For selection of the variants with the best yields, the culture broths were processed as follows. The broth was first activated by mixing 20 ml of broth with 20 ml of 0.25 M glycine buffer (pH 9.3) and the pH was adjusted to 9.0 with 50% NaOH. Then, 2-mercaptoethanol was added to the diluted cultures to a final concentration of 2 mM and the cultures were incubated overnight at room temperature with gentle shaking. The BBIt-AV moiety was then cleaved from the fusion protein by acid/heat treatment, which was accomplished by first adjusting the pH of the activated broth to pH 1.9-2.0 with sulfuric acid, and followed by incubation at 60° C. for 16 hours, with shaking. The BBIt-AV-BCE fusion protein and the BCE catalytic domain are not soluble at pH 2, whereas the free BBI species is soluble. After the cleavage reaction, the insoluble material was removed by centrifugation (5 min. at 3,000 rpm) and the supernatant was analyzed for trypsin inhibitory activity as described above. The BBI activity was also determined for the starting material and for the samples taken after activation. The BCE activity of the starting material was also determined as described above. The BBIt-AV:BCE activity ratios were then calculated for each step in process. The modified BBIt-AVs produced at the highest yields following the acid/heat treatment were selected for further study.

| Molecule | yield after acid/heat treatment relative to BBIt-AV-A13I-L29P-A40K-F50T-V52A (SEQ ID NO:601) |
| --- | --- |
| B1 | somewhat less |
| B2 | slightly better yields |
| B3 | slightly better yields |
| B4 | significantly lower yields |
| B5 | significantly better yields |
| B6 | significantly better yields |
| B7 | significantly lower yields |
| B8 | significantly lower yields |
| B9 | significantly lower yields |
| B10 | significantly better yields |
| B11 | somewhat less |
| B12 | significantly better yields |
| B13 | somewhat less |
| B14 | slightly better yields |

Same assay, conditions: alternative scaffolds

| Molecule | inhibitory activities after acid/heat treatment relative to BBIt-AV | activation with reducing agent |
| --- | --- | --- |
| B15 | higher inhibitory activities after acid/heat treatment |  |
| B16 |  | did not activate with reducing agent |
| B17 | higher inhibitory activities after acid/heat treatment |  |

Same assay, conditions: alternative scaffolds compared with BBIt-AV

| Molecule | trypsin inhibitory activity after activation |
| --- | --- |
| B15 | greater than that of the BBIt-AV inhibitor but less than that of the BBItc-AV inhibitor |
| B16 | very low trypsin inhibitory activity |
| B17 | highest trypsin inhibitory activity after activation |

Same assay, conditions: relative to unmodified BBIt-AV

| Molecule | BBIt-AV:BCE activity ratio after acid/heat treatment |
| --- | --- |
| B18 | higher |

Source: patent US7772181B2, “Personal care compositions comprising modified variant Bowman Birk Protease Inhibitors” (Danisco US Inc., priority 2008, dated 2010)
